Test results taken from patent US20100028342A1 (published 2010).
“And” between values parts separate entries of the source, which are not always exact repeats. Identical values can stand only once.

Experiments:
[1] = target: T1, recombinant mouse IGF-IR (mIGF-IR) (mouse, UniProt Q60751 31-933, limits assumed); assay: ELISA on immobilized recombinant mouse IGF-IR
T1 construct: also called mIGF-ER

[2] = target: T2, native human IGF-IR on human tumor cells (human, UniProt P08069 31-1367); assay: competition: blocking of IGF-I binding to MCF7 cells (breast)
T2 construct: whole, on cells; also called native IGF-IR; endogenous cellular IGF-IR
Description: (§1) The anti-IGF-IR antibodies were tested for blocking of radiolabeled ligand binding to native IGF-IR on human tumor cells (FIG. 1C). Assay conditions were performed according to Arteaga and Osborne (Cancer Res. 49:6237-41 (1989)), with minor modifications. MCF7 human breast cancer cells were seeded into 24 well dishes, and cultured overnight. Sub-confluent monolayers were washed 2-3 times in binding buffer (Iscove's Medium/0.1% BSA) and antibody added in binding buffer. […] The wells were then washed three times with ice-cold PBS/0.1% BSA. Monolayers were then lysed with 200 μl 0.5N NaOH and counted in a gamma counter.

[3] = target: T2, native human IGF-IR on human tumor cells; assay: competition: blocking of IGF-I binding to T47D cells (breast)
[4] = target: T2, native human IGF-IR on human tumor cells; assay: competition: blocking of IGF-I binding to 8226 cells (myeloma)
[5] = target: T2, native human IGF-IR on human tumor cells; assay: competition: blocking of IGF-I binding to OV90 cells (ovarian)
[6] = target: T2, native human IGF-IR on human tumor cells; assay: competition: blocking of 125I-IGF-I binding to IGF-IR on MCF7 cells
Description: as §1

[7] = target: T2, native human IGF-IR on human tumor cells; assay: competition: blocking of IGF-I binding to HPAC cells (pancreatic)
[8] = target: T2, native human IGF-IR on human tumor cells; assay: competition: blocking of IGF-I binding to BXPC3 cells (pancreatic)
[9] = target: T2, native human IGF-IR on human tumor cells; assay: competition: blocking of IGF-I binding to HT-29 cells (colorectal)
[10] = target: T2, native human IGF-IR on human tumor cells; assay: competition: blocking of IGF-I binding to SK-ES1 cells (Ewing sarcoma)

T1 sequence (Q60751 31-933 limits assumed): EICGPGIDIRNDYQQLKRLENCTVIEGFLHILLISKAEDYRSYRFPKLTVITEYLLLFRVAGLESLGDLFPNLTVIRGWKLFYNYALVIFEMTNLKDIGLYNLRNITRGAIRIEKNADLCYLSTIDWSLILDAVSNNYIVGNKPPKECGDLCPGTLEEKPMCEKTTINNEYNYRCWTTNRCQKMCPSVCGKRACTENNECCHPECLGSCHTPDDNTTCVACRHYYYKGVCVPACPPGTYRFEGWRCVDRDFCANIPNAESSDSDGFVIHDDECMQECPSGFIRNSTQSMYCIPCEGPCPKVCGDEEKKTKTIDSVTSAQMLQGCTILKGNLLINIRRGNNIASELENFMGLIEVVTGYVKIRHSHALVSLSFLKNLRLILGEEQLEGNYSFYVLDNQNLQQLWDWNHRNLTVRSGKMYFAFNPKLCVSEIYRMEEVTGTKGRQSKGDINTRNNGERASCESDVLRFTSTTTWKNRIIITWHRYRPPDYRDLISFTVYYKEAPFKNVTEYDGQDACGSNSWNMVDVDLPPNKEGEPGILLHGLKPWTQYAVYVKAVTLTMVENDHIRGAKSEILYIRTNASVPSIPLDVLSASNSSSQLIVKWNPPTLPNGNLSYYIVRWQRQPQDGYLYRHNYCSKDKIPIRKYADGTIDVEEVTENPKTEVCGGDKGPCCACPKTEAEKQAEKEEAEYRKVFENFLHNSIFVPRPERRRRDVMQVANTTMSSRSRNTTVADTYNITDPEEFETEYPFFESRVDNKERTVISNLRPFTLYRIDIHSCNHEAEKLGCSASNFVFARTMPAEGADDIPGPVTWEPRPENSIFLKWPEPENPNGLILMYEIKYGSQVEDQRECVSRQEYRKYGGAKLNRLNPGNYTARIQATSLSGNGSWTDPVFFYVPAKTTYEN

| Binder | EC50 [1] [nM] | IC50 [2] [nM] | IC50 [3] [nM] | IC50 [4] [nM] | IC50 [5] [nM] | IC50 [6] | IC50 [7] [nM] | IC50 [8] [nM] | IC50 [9] [nM] | IC50 [10] [nM] |
| --- | --- | --- | --- | --- | --- | --- | --- | --- | --- | --- |
| antibody A12 (fully human IgG1 anti-IGF-IR antibody) (antibody, V domains shown, also called A12 IgG) VH: EVQLVQSGAEVKKPGSSVKVSCKASGGTFSSYAISWVRQAPGQGLEWMGGIIPIFGTANYAQKFQGRVTITADKSTSTAYMELSSLRSEDTAVYYCARAPLRFLEWSTQDHYYYYYMDVWGKGTTVTVSS VL: SSELTQDPAVSVALGQTVRITCQGDSLRSYYATWYQQKPGQAPILVIYGENKRPSGIPDRFSGSSSGNTASLTITGAQAEDEADYYCKSRDGSGQHLVFGGGTKLTVLG | 0.3 to 0.5 | 3 | 6 | 20 | 6 | 0.45 mg/L | 10 | 20 | 10 | 2 |
| antibody 2F8 (fully human IgG1 anti-IGF-IR antibody) (antibody, V domains shown, also called 2F8 IgG) VH: EVQLVQSGAEVKKPGSSVKVSCKASGGTFSSYAISWVRQAPGQGLEWMGGIIPIFGTANYAQKFQGRVTITADKSTSTAYMELSSLRSEDTAVYYCARAPLRFLEWSTQDHYYYYYMDVWGKGTTVTVSS VL: SSELTQDPAVSVALGQTVRITCQGDSLRSYYASWYQQKPGQAPVLVIYGKNNRPSGIPDRFSGSSSGNTASLTITGAQAEDEADYYCNSRDNSDNRLIFGGGTKLTVLS | – | – | – | – | – | 30 nM and 4.5 µg/mL | – | – | – | – |
